Measured values: patent US20120214741A1

Biological target: native mVDAC1-GFP (mouse) (UniProt Q60932)
Experiment: cell-based or functional assay

Sequence of native mVDAC1-GFP (mouse) (Q60932 14-296): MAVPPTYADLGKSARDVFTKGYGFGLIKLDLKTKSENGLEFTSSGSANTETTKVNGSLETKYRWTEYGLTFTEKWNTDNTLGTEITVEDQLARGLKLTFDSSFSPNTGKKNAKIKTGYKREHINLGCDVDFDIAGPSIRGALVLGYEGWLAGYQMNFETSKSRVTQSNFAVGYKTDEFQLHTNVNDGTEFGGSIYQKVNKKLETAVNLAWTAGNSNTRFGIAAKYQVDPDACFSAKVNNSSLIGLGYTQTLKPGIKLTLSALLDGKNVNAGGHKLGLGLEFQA

Substance: recombinant HK-I over-expressed in cells (pcDNA3.1-HisA-HK-I) (enzyme)
- apoptotic cell death of cells over-expressing HK-I and mVDAC1-GFP: < 10%
